Data from doi:10.1101/2021.04.26.441214 (bioRxiv, 2021).
Each block holds one molecule with its values, some of them ahead of it.

Tests used:
Test in all cases: cryo-EM structure
[1] = target: T. maritima encapsulin shell protein (wild type) (T. maritima) (UniProt Q9WZP2)
cryo-EM structure = target: the molecule itself
[2] = target: T. maritima encapsulin shell protein (wild type) (T. maritima) (UniProt Q9WZP2); remark: listed apart in the source

Chain of T. maritima encapsulin shell protein (wild type) (T. maritima) (Q9WZP2 whole entry): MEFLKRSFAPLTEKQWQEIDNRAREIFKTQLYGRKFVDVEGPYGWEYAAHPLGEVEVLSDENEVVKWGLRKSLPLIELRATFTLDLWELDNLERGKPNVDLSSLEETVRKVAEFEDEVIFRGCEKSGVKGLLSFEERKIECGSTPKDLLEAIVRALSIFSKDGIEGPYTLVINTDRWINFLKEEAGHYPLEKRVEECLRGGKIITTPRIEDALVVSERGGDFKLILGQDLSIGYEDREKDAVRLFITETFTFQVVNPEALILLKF

stoichiometry N (subunits per shell) [1]: 60
Molecule: T. maritima encapsulin shell protein (wild type) (from UniProt Q9WZP2 1-265) (natural protein)

FLPs per shell (2D class averages) (FLPs per shell) [2]: 2
B1: T. maritima ferritin-like protein (FLP) cargo (natural protein, UniProt Q9WZP3 1-114, looked up)
chain: MADQYHEPVSELTGKDRDFVRALNSLKEEIEAVAWYHQRVVTTKDETVRKILEHNRDEEMEHAAMLLEWLRRNMPGWDEALRTYLFTDKPITEIEEETSGGSENTGGDLGIRKL
stoichiometry N (cryo-EM structure): 10 subunits
